Experimental findings from patent US10377818B2, “Method of treating glioma” (The Board of Trustees of the Leland Stanford Junior …, priority 2015, dated 2019) are described below.

This assay has as its system SU-pcGBM2 cells. The assay is described as follows: EdU incorporation assay, proliferation index of pHGG cells (SU-pcGBM2). In kind it is cell-based, human.

B1: brevican: Recombinant candidate protein from proteomic analyses of cortical slice conditioned media (protein, UniProt Q96GW7 23-911, looked up)
Brevican core protein: DVLEGDSSEDRAFRVRIAGDAPLQGVLGGALTIPCHVHYLRPPPSRRAVLGSPRVKWTFLSRGREAEVLVARGVRVKVNEAYRFRVALPAYPASLTDVSLALSELRPNDSGIYRCEVQHGIDDSSDAVEVKVKGVVFLYREGSARYAFSFSGAQEACARIGAHIATPEQLYAAYLGGYEQCDAGWLSDQTVRYPIQTPREACYGDMDGFPGVRNYGVVDPDDLYDVYCYAEDLNGELFLGDPPEKLTLEEARAYCQERGAEIATTGQLYAAWDGGLDHCSPGWLADGSVRYPIVTPSQRCGGGLPGVKTLFLFPNQTGFPNKHSRFNVYCFRDSAQPSAIPEASNPASNPASDGLEAIVTVTETLEELQLPQEATESESRGAIYSIPIMEDGGGGSSTPEDPAEAPRTLLEFETQSMVPPTGFSEEEGKALEEEEKYEDEEEKEEEEEEEEVEDEALWAWPSELSSPGPEASLPTEPAAQEESLSQAPARAVLQPGASPLPDGESEASRPPRVHGPPTETLPTPRERNLASPSPSTLVEAREVGEATGGPELSGVPRGESEETGSSEGAPSLLPATRAPEGTRELEAPSEDNSGRTAPAGTSVQAQPVLPTDSASRGGVAVVPASGDCVPSPCHNGGTCLEEEEGVRCLCLPGYGGDLCDVGLRFCNPGWDAFQGACYKHFSTRRSWEEAETQCRMYGAHLASISTPEEQDFINNRYREYQWIGLNDRTIEGDFLWSDGVPLLYENWNPGQPDSYFLSGENCVVMVWHDQGQWSDVPCNYHLSYTCKMGLVSCGPPPELPLAQVFGRPRLRYEVDTVLRYRCREGLAQRNLPLIRCQENGRWEAPQISCVPRRPARALHPEEDPEGRQGRLLGRWKALLIPPSSPMPGP
Consider B1, for which, for the setting “recombinant candidate proteins at 100 nM for 24 hours”, the “effect on proliferation index relative to aCSF control” value is on record as “did not differ”.

B2: NLGN2: Recombinant soluble neuroligin-2 (protein, UniProt Q8NFZ4 15-677, looked up)
extracellular domain: QRGGGGPGGGAPGGPGLGLGSLGEERFPVVNTAYGRVRGVRRELNNEILGPVVQFLGVPYATPPLGARRFQPPEAPASWPGVRNATTLPPACPQNLHGALPAIMLPVWFTDNLEAAATYVQNQSEDCLYLNLYVPTEDGPLTKKRDEATLNPPDTDIRDPGKKPVMLFLHGGSYMEGTGNMFDGSVLAAYGNVIVATLNYRLGVLGFLSTGDQAAKGNYGLLDQIQALRWLSENIAHFGGDPERITIFGSGAGASCVNLLILSHHSEGLFQKAIAQSGTAISSWSVNYQPLKYTRLLAAKVGCDREDSAEAVECLRRKPSRELVDQDVQPARYHIAFGPVVDGDVVPDDPEILMQQGEFLNYDMLIGVNQGEGLKFVEDSAESEDGVSASAFDFTVSNFVDNLYGYPEGKDVLRETIKFMYTDWADRDNGEMRRKTLLALFTDHQWVAPAVATAKLHADYQSPVYFYTFYHHCQAEGRPEWADAAHGDELPYVFGVPMVGATDLFPCNFSKNDVMLSAVVMTYWTNFAKTGDPNQPVPQDTKFIHTKPNRFEEVVWSKFNSKEKQYLHIGLKPRVRDNYRANKVAFWLELVPHLHNLHTELFTTTTRLPPYATRWPPRPPAGAPGTRRPPPPATLPPEPEPEPGPRAYDRFPGDSRDYSTELS
modifications: extracellular domain
Take B2: the “effect on pHGG cell proliferation” value (recombinant NLGN2 at 1, 10 or 100 nM for 24 hours) is “No effect of NLGN2 on pHGG cell proliferation was observed”.
